The text below walks through data of publication PMC2504713 (Journal of Leukocyte Biology, 2008).

The target in assay [1] is Recombinant rat Nrp1, conjugated to an Fc fragment of human IgG1 (Nrp1-Fc) (rat) (UniProt Q9QWJ9). The assay can be described thus: ELISA.
Assay [2] has as its target T1, LAP C-terminal peptide QSSRHRR.
T1 peptide: Ac-QSSRHRR-OH
Description: ELISA. Background: In an ELISA, binding on a coated surface is turned into a signal by an enzyme label.

Active (mature) TGF-β1 (ligand): in assay [1], the IC50 amounted to 890 pM and the Kd was 40 pM.
Take “LAP-TGF-β1 (the latent form of TGF-β1) (from UniProt P01137 30-278) (complex)”: the EC50 in assay [1] was determined as 338 pM.

B1: Recombinant rat Nrp1, conjugated to an Fc fragment of human IgG1 (Nrp1-Fc) (Fc fusion, UniProt Q9QWJ9 22-855, looked up)
chain: FRSDKCGGTIKIENPGYLTSPGYPHSYHPSEKCEWLIQAPEPYQRIMINFNPHFDLEDRDCKYDYVEVIDGENEGGRLWGKFCGKIAPSPVVSSGPFLFIKFVSDYETHGAGFSIRYEIFKRGPECSQNYTAPTGVIKSPGFPEKYPNSLECTYIIFAPKMSEIILEFESFDLEQDSNPPGGVFCRYDRLEIWDGFPEVGPHIGRYCGQKTPGRIRSSSGILSMVFYTDSAIAKEGFSANYSVLQSSISEDFKCMEALGMESGEIHSDQITASSQYGTNWSVERSRLNYPENGWTPGEDSYREWIQVDLGLLRFVTAVGTQGAISKETKKKYYVKTYRVDISSNGEDWITLKEGNKAIIFQGNTNPTDVVFGVFPKPLITRFVRIKPASWETGISMRFEVYGCKITDYPCSGMLGMVSGLISDSQITASNQGDRNWMPENIRLVTSRTGWALPPSPHPYINEWLQVDLGDEKIVRGVIIQGGKHRENKVFMRKFKIAYSNNGSDWKMIMDDSKRKAKSFEGNNNYDTPELRAFTPLSTRFIRIYPERATHSGLGLRMELLGCEVEVPTAGPTTPNGNPVDECDDDQANCHSGTGDDFQLTGGTTVLATEKPTIIDSTIQSEFPTYGFNCEFGWGSHKTFCHWEHDSHAQLRWRVLTSKTGPIQDHTGDGNFIYSQADENQKGKVARLVSPVVYSQSSAHCMTFWYHMSGSHVGTLRVKLHYQKPEEYDQLVWMVVGHQGDHWKEGRVLLHKSLKLYQVIFEGEIGKGNLGGIAVDDISINNHIPQEDCAKPTDLDKKNTEIKIDETGSTPGYEEGKGDKNISRKPGNVLKTLDP
With B1, in assay [2], it took 4180 ± 990 pM to reach a half-maximal effect (EC50).

By IC50 is commonly meant the concentration that inhibits the measured activity by half. The term Kd denotes the free concentration of one partner at which half of the binding sites on the other are occupied at equilibrium, for simple one-to-one binding. Usually EC50 stands for the concentration that produces a half-maximal response.
